B1: S.c. proliferating cell nuclear antigen (PCNA) sliding clamp (natural protein, S. cerevisiae)
chain: MLEAKFEEASLFKRIIDGFKDCVQLVNFQCKEDGIIAQAVDDSRVLLVSLEIGVEAFQEYRCDHPVTLGMDLTSLSKILRCGNNTDTLTLIADNTPDSIILLFEDTKKDRIAEYSLKLMDIDADFLKIEELQYDSTLSLPSSEFSKIVRDLSQLSDSINIMITKETIKFVADGDIGSGSVIIKPFVDMEHPETSIKLEMDQPVDLTFGAKYLLDIIKGSSLSDRVGIRLSSEAPALFQFDLKSGFLQFFLAPKFNDEE
notes: PCNA of Saccharomyces cerevisiae, homotrimeric ring; also called PCNA clamp; PCNA trimer; source: purified
B2: S.c. DNA polymerase δ regulatory subunit Pol31 (natural protein, S. cerevisiae)
chain: MDALLTKFNEDRSLQDENLSQPRTRVRIVDDNLYNKSNPFQLCYKKRDYGSQYYHIYQYRLKTFRERVLKECDKRWDAGFTLNGQLVLKKDKVLDIQGNQPCWCVGSIYCEMKYKPNVLDEVINDTYGAPDLTKSYTDKEGGSDEIMLEDESGRVLLVGDFIRSTPFITGVVVGILGMEAEAGTFQVLDICYPTPLPQNPFPAPIATCPTRGKIALVSGLNLNNTSPDRLLRLEILREFLMGRINNKIDDISLIGRLLICGNSVDFDIKSVNKDELMISLTEFSKFLHNILPSISVDIMPGTNDPSDKSLPQQPFHKSLFDKSLESYFNGSNKEILNLVTNPYEFSYNGVDVLAVSGKNINDICKYVIPSNDNGESENKVEEGESNDFKDDIEHRLDLMECTMKWQNIAPTAPDTLWCYPYTDKDPFVLDKWPHVYIVANQPYFGTRVVEIGGKNIKIISVPEFSSTGMIILLDLETLEAETVKIDI
notes: Pol31 (B subunit), regulatory subunit of Saccharomyces cerevisiae DNA polymerase δ; Stood in the assay as part of the three-subunit Pol δ; also called B subunit
B3: S.c. DNA polymerase δ regulatory subunit Pol32 (natural protein, S. cerevisiae)
chain: MDQKASYFINEKLFTEVKPVLFTDLIHHLKIGPSMAKKLMFDYYKQTTNAKYNCVVICCYKDQTIKIIHDLSNIPQQDSIIDCFIYAFNPMDSFIPYYDIIDQKDCLTIKNSYELKVSESSKIIERTKTLEEKSKPLVRPTARSKTTPEETTGRKSKSKDMGLRSTALLAKMKKDRDDKETSRQNELRKRKEENLQKINKQNPEREAQMKELNNLFVEDDLDTEEVNGGSKPNSPKETDSNDKDKNNDDLEDLLETTAEDSLMDVPKIQQTKPSETEHSKEPKSEEEPSSFIDEDGYIVTKRPATSTPPRKPSPVVKRALSSSKKQETPSSNKRLKKQGTLESFFKRKAK
notes: Pol32, regulatory subunit of Saccharomyces cerevisiae DNA polymerase δ; Stood in the assay as part of the three-subunit Pol δ
B4: 62-mer ssDNA (ssDNA)
DNA: ATGCTTAGCCTGAGGACTATTCTACTTAACGCGAGTTACGTGACGGTATCTTATCCGGCGC
B5: T/P DNA (38-nt template / 25-nt primer) (dsDNA)
DNA 1: CTGCACGAATTAAGCAATTCGTAATCATGGTCATAGCT
DNA 2: AGCTATGACCATGATTACGAATTGC
modifications: primer 3'-terminal dideoxy-C

Assays:
[1] = biological target: T1, S.c. DNA polymerase δ catalytic subunit Pol3 with the D321S and E323S mutations in the exonuclease active site (S. cerevisiae, UniProt P15436 1-1097, D321S | E323S); assay: cryo-EM structure; 8.0 uM PCNA and 6.0 uM T/P DNA mixed in Hepes-KOH pH 7.5, DTT, MgAc, KOAc, potassium glutamate, 0.4 mM ddTTP, then 3.3 uM Pol δ added; PCNA:Pol δ:T/P DNA 1.2:1:0.9; on ice 1 h; 3.2 Å map; settings: both partners purified
T1 construct: Pol3, catalytic subunit of Saccharomyces cerevisiae DNA polymerase δ; carries a 4Fe-4S cluster (CysB) and a zinc finger (CysA); Stood in the assay as part of the three-subunit Pol δ; also called catalytic subunit of Pol δ^exo-
T1 sequence: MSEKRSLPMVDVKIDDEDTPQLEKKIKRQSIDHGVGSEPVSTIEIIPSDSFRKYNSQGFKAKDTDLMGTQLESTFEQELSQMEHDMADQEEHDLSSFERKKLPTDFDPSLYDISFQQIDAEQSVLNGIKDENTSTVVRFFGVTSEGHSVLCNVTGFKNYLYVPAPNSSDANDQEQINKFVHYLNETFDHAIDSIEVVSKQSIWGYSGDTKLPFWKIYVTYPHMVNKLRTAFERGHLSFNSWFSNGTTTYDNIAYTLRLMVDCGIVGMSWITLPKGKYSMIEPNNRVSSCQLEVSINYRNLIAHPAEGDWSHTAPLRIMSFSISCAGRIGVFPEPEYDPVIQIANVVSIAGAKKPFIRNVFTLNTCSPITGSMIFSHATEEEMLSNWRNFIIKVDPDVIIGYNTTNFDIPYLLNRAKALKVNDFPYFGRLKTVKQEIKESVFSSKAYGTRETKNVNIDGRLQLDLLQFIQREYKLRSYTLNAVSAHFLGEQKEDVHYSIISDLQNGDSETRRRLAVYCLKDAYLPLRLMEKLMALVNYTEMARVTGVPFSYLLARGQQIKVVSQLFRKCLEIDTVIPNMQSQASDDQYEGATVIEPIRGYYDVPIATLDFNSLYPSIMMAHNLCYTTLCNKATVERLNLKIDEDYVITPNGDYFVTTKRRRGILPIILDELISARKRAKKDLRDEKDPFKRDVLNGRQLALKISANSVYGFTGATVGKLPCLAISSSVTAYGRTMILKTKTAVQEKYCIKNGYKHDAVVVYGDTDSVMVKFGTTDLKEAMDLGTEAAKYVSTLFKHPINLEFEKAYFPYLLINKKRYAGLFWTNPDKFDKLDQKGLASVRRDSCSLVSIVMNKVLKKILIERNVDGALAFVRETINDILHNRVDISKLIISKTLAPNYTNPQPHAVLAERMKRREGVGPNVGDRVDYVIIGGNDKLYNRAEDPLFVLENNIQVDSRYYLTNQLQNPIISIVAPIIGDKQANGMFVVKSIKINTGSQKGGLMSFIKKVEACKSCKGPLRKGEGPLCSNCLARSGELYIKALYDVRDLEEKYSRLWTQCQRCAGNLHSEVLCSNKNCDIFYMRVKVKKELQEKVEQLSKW

[2] = biological target: T2, S.c. DNA polymerase δ (Pol3-Pol31-Pol32) harboring the D321S and E323S mutations in the exonuclease domain of … (S. cerevisiae, UniProt P15436 1-1097; P46957 1-487; P47110 1-350, D321S | E323S); assay: as above; settings: both partners purified
T2 construct: Pol3, catalytic subunit of Saccharomyces cerevisiae DNA polymerase δ; Pol31 (B subunit), regulatory subunit of Saccharomyces cerevisiae DNA polymerase δ; Pol32, regulatory subunit of Saccharomyces cerevisiae DNA polymerase δ; also called Pol δ^exo-; Pol δ; copies: + +

[3] = biological target: the molecule itself; assay: as above
[4] = biological target: B2; assay: as above; settings: both partners purified
Pol31-Pol32 complex = Pol31-Pol32 complex (Saccharomyces cerevisiae, UniProt P46957;P47110 1-487;1-350); assay: EMSA; 5 mM Mg2+; 0-5 uM protein, 0.5 nM DNA; EMSA: 50 mM Hepes pH 7.5, 5 mM MgCl2, 50 mM NaOAc, 1 mM DTT, 6% glycerol, 90 min at room temperature; 8% native PAGE in 40 mM Tris, 150 mM glycine pH 8.0; settings: protein: recombinant; tags: GST tag removed with PreScission protease; copies: 1;1; label: 5'-32P; single strand
[5] = biological target: Pol delta exo- (Pol3-Pol31-Pol32);PCNA (Saccharomyces cerevisiae;Saccharomyces …, UniProt P15436;P46957;P47110;P15873 1-1097;1-487;1-350;1-258, D321S;E323S|); assay: cryo-EM 3.2 A; ddTTP; 4Fe-4S cluster, Zn2+; EMSA: 50 mM Hepes pH 7.5, 5 mM MgCl2, 50 mM NaOAc, 1 mM DTT, 6% glycerol, 90 min at room temperature; 8% native PAGE in 40 mM Tris, 150 mM glycine pH 8.0; settings: protein: recombinant;recombinant; tags: ;; copies: 1;1;1;3; 25 bp, 5' overhang 13 nt on template

B1 was tested, and the binding result [1] was “binds”, the binding result [2] was “binds” and the “stoichiometry N” value [3] was 3.

B2: binds [1].

B3: binds [4].

B4: binds (Pol31-Pol32 complex).

B5: binds [5].

— publication PMC7720213, “Structure of eukaryotic DNA polymerase δ bound to the PCNA clamp while encircling DNA” (Proceedings of the National Academy of Sciences of the …, 2020)
